Results on one substance are retold here after publication PMC3338861.

For this experiment, the target named is purified BfpD assembly ATPase (enteropathogenic Escherichia coli (EPEC)).

purified BfpD assembly ATPase (enzyme): the stoichiometry N is 6.
